# Assay results: US20220033501A1 (SHANGHAI PHARMAEXPLORER, published 2022)
# Numbering of substitutions follows the chain as printed.
# T1: monkey TIM-3 on CHOK1 stable cell line (CHOK1-cTIM-3) (monkey)
# T1 chain: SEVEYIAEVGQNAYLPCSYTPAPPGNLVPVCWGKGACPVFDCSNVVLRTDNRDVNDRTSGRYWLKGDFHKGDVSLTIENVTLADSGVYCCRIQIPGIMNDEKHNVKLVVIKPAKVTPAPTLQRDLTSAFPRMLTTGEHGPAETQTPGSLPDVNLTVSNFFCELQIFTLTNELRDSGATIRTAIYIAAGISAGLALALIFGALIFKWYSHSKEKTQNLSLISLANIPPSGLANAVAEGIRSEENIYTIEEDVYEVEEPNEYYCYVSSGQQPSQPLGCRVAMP
# T2: monkey TIM-3 extracellular domain protein with hFc tag (cTIM-3-hFc) (monkey)
# T2 construct: not shown: human IgG Fc fragment (hFc) of the pCpC vector
# T2 chain: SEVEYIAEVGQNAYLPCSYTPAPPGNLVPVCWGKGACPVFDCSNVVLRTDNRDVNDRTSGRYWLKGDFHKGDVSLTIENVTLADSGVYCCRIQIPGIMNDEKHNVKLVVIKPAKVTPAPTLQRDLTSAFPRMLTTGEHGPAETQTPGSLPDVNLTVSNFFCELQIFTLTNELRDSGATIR
# T3: human TIM-3 on CHOK1 stable cell line (CHOK1-hTIM-3) (human, UniProt Q8TDQ0 22-301)
# T3 sequence: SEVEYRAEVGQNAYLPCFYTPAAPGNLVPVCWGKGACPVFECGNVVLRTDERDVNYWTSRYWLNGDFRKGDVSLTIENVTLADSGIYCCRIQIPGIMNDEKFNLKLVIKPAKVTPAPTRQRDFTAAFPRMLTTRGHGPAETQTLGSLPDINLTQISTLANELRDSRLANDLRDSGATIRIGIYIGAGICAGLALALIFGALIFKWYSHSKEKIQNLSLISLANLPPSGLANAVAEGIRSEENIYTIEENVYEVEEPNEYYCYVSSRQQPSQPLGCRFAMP
# T4: murine TIM-3 extracellular domain protein with hFc tag (mTIM-3-hFc) (mouse, UniProt Q8VIM0 29-191)
# T4 construct: also called mouse TIM-3 extracellular domain protein; not shown: human IgG Fc fragment (hFc) of the pCpC vector
# T4 chain: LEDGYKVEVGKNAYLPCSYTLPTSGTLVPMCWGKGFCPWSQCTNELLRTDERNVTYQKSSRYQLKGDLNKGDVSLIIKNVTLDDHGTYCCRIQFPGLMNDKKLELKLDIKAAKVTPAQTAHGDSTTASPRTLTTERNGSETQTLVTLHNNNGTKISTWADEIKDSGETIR
# B1: 18D2H2 fully human TIM-3 antibody (human IgG4, kappa) (antibody, V domains shown)
# VH: EVQLVESGGDLVQPGGSLRLSCAASGFTFSTYWMTWVRQAPGRGLEWVANIKQDGSAKYYVDSVKGRFTLSRDDAKNSLYLQMNSLRAEDTAVYYCARGSNWFDYWGQGTLVTVSS
# VL: ETVMTQSPATLSVSPGERATLSCRANQNVYSNLAWYQQKPGQAPRLLIYDASTRATGFPARFSGSGSGTEFTLTISSLQSEDFAVYYCQQYNNWPLTFGGGTKVEIK
# B2: 34B6D8 fully human TIM-3 antibody (human IgG4, kappa) (antibody, V domains shown)
# VH: B1 VH with D10G, R43K, G44R, D54G, S56G, A57D, L70I, R72T, D74N, Y105P
# VL: EIVMTQSPATLSMSPGERATLSCRASQSVYDNLAWYQQKPGQAPRLLIYGASTRATGIPARFSGSGSGTEFTLTISSLQSEDFALYYCQQYTHWPITFGQGTRLEIK
# B3: 39E5H1 fully human TIM-3 antibody (human IgG4, kappa) (antibody, V domains shown)
# VH: EVQLVESGGGLVQPGGSLRLSCAASGFTFSSYWMSWVRQAPGKGLEWVANIKRGGSERYYVDSVKGRFTISGDNAKNSVYLQMNSLRAEDTAVYYCARGSNWFDPWGQGTLVTVSS
# VL: B2 VL with I2T, T10I, M13V, D31S, P40L, G50D, L85V, T92N, H93N
# Experiments:
# [1] = biological target: T1, monkey TIM-3 on CHOK1 stable cell line …; experiment: FACS, CHOK1-cTIM-3 cells, 1.6 nM antibody
# [2] = biological target: T1, monkey TIM-3 on CHOK1 stable cell line …; experiment: FACS, CHOK1-cTIM-3 cells, 40 nM antibody
# [3] = biological target: T2, monkey TIM-3 extracellular domain …; experiment: ELISA, coated monkey TIM-3 ECD protein, 0.0007 nM antibody
# [4] = biological target: T3, human TIM-3 on CHOK1 stable cell line …; experiment: FACS, CHOK1-hTIM-3 cells, 40 nM antibody
# [5] = biological target: T4, murine TIM-3 extracellular domain …; experiment: ELISA, coated mouse TIM-3 ECD protein, 66.667 nM antibody
Binder,Mean fluorescence intensity [1],Mean fluorescence intensity [2],OD450 [3],Mean fluorescence intensity [4],OD450 [5]
B1,333,462,0.15,257,0.81
B2,266,336,0.19,221,1.38
B3,315,337,0.18,264,1.28
